Measured values published in patent US20150344570A1 (published 2015).

Target: T1, FcγRIa (human, UniProt P12314 16-292)
T1 construct: extracellular domain; also called FcgRI; FcgRIa; not shown: His tag attached to the C terminus
Test: SPR (Biacore), relative binding; control HoCon Ab GpH7-B3/GpL16-k0

T1 sequence (P12314 16-292): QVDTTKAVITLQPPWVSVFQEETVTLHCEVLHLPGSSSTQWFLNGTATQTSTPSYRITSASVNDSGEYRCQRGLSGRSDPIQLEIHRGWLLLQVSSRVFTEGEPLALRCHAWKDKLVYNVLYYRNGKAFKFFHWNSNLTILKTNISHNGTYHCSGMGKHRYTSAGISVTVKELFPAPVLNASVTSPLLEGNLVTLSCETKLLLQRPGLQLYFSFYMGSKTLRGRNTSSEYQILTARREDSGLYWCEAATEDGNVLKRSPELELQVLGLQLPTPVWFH

Row | Binder | Ho/Con_1a
1 | GpH7-B3 variant K326_07I/GpL16-k0 (antibody, human IgG1, kappa, Alteration in both H chains; also called Ho Ab K326_07I) heavy: not shown light: DIVMTQSPLSLPVTPGEPASISCQASESLVHSNRNTYLHWYLQKPGQSPQLLIYKVSNRFSGVPDRFSGSGSGTDFTLKISRVEAEDVGVYYCSQNTHVPPTFGQGTKVEIERTVAAPSVFIFPPSDEQLKSGTASVVCLLNNFYPREAKVQWKVDNALQSGNSQESVTEQDSKDSTYSLSSTLTLSKADYEKHKVYACEVTHQGLSSPVTKSFNRGEC | 102 % of control (=100)
2 | GpH7-B3 variant K334_02A/GpL16-k0 (antibody, human IgG1, kappa, Alteration in both H chains; also called Ho Ab K334_02A) heavy: not shown light: DIVMTQSPLSLPVTPGEPASISCQASESLVHSNRNTYLHWYLQKPGQSPQLLIYKVSNRFSGVPDRFSGSGSGTDFTLKISRVEAEDVGVYYCSQNTHVPPTFGQGTKVEIERTVAAPSVFIFPPSDEQLKSGTASVVCLLNNFYPREAKVQWKVDNALQSGNSQESVTEQDSKDSTYSLSSTLTLSKADYEKHKVYACEVTHQGLSSPVTKSFNRGEC | 106 % of control (=100)
3 | GpH7-B3 variant K326_08L/GpL16-k0 (antibody, human IgG1, kappa, Alteration in both H chains; also called Ho Ab K326_08L) heavy: not shown light: DIVMTQSPLSLPVTPGEPASISCQASESLVHSNRNTYLHWYLQKPGQSPQLLIYKVSNRFSGVPDRFSGSGSGTDFTLKISRVEAEDVGVYYCSQNTHVPPTFGQGTKVEIERTVAAPSVFIFPPSDEQLKSGTASVVCLLNNFYPREAKVQWKVDNALQSGNSQESVTEQDSKDSTYSLSSTLTLSKADYEKHKVYACEVTHQGLSSPVTKSFNRGEC | 101 % of control (=100)
4 | GpH7-B3 variant P271_01G/GpL16-k0 (antibody, human IgG1, kappa, Alteration in both H chains; also called Ho Ab P271_01G) heavy: not shown light: DIVMTQSPLSLPVTPGEPASISCQASESLVHSNRNTYLHWYLQKPGQSPQLLIYKVSNRFSGVPDRFSGSGSGTDFTLKISRVEAEDVGVYYCSQNTHVPPTFGQGTKVEIERTVAAPSVFIFPPSDEQLKSGTASVVCLLNNFYPREAKVQWKVDNALQSGNSQESVTEQDSKDSTYSLSSTLTLSKADYEKHKVYACEVTHQGLSSPVTKSFNRGEC | 106 % of control (=100)
5 | GpH7-B3 variant K334_07I/GpL16-k0 (antibody, human IgG1, kappa, Alteration in both H chains; also called Ho Ab K334_07I) heavy: not shown light: DIVMTQSPLSLPVTPGEPASISCQASESLVHSNRNTYLHWYLQKPGQSPQLLIYKVSNRFSGVPDRFSGSGSGTDFTLKISRVEAEDVGVYYCSQNTHVPPTFGQGTKVEIERTVAAPSVFIFPPSDEQLKSGTASVVCLLNNFYPREAKVQWKVDNALQSGNSQESVTEQDSKDSTYSLSSTLTLSKADYEKHKVYACEVTHQGLSSPVTKSFNRGEC | 107 % of control (=100)
6 | GpH7-B3 variant K334_03V/GpL16-k0 (antibody, human IgG1, kappa, Alteration in both H chains; also called Ho Ab K334_03V) heavy: not shown light: DIVMTQSPLSLPVTPGEPASISCQASESLVHSNRNTYLHWYLQKPGQSPQLLIYKVSNRFSGVPDRFSGSGSGTDFTLKISRVEAEDVGVYYCSQNTHVPPTFGQGTKVEIERTVAAPSVFIFPPSDEQLKSGTASVVCLLNNFYPREAKVQWKVDNALQSGNSQESVTEQDSKDSTYSLSSTLTLSKADYEKHKVYACEVTHQGLSSPVTKSFNRGEC | 105 % of control (=100)
7 | GpH7-B3 variant K334_09D/GpL16-k0 (antibody, human IgG1, kappa, Alteration in both H chains; also called Ho Ab K334_09D) heavy: not shown light: DIVMTQSPLSLPVTPGEPASISCQASESLVHSNRNTYLHWYLQKPGQSPQLLIYKVSNRFSGVPDRFSGSGSGTDFTLKISRVEAEDVGVYYCSQNTHVPPTFGQGTKVEIERTVAAPSVFIFPPSDEQLKSGTASVVCLLNNFYPREAKVQWKVDNALQSGNSQESVTEQDSKDSTYSLSSTLTLSKADYEKHKVYACEVTHQGLSSPVTKSFNRGEC | 108 % of control (=100)
8 | GpH7-B3 variant K326_20W/GpL16-k0 (antibody, human IgG1, kappa, Alteration in both H chains; also called Ho Ab K326_20W) heavy: not shown light: DIVMTQSPLSLPVTPGEPASISCQASESLVHSNRNTYLHWYLQKPGQSPQLLIYKVSNRFSGVPDRFSGSGSGTDFTLKISRVEAEDVGVYYCSQNTHVPPTFGQGTKVEIERTVAAPSVFIFPPSDEQLKSGTASVVCLLNNFYPREAKVQWKVDNALQSGNSQESVTEQDSKDSTYSLSSTLTLSKADYEKHKVYACEVTHQGLSSPVTKSFNRGEC | 104 % of control (=100)
9 | GpH7-B3 variant L328_15Y/GpL16-k0 (antibody, human IgG1, kappa, Alteration in both H chains; also called Ho Ab L328_15Y) heavy: not shown light: DIVMTQSPLSLPVTPGEPASISCQASESLVHSNRNTYLHWYLQKPGQSPQLLIYKVSNRFSGVPDRFSGSGSGTDFTLKISRVEAEDVGVYYCSQNTHVPPTFGQGTKVEIERTVAAPSVFIFPPSDEQLKSGTASVVCLLNNFYPREAKVQWKVDNALQSGNSQESVTEQDSKDSTYSLSSTLTLSKADYEKHKVYACEVTHQGLSSPVTKSFNRGEC | 104 % of control (=100)
10 | GpH7-B3 variant K334_18N/GpL16-k0 (antibody, human IgG1, kappa, Alteration in both H chains; also called Ho Ab K334_18N) heavy: not shown light: DIVMTQSPLSLPVTPGEPASISCQASESLVHSNRNTYLHWYLQKPGQSPQLLIYKVSNRFSGVPDRFSGSGSGTDFTLKISRVEAEDVGVYYCSQNTHVPPTFGQGTKVEIERTVAAPSVFIFPPSDEQLKSGTASVVCLLNNFYPREAKVQWKVDNALQSGNSQESVTEQDSKDSTYSLSSTLTLSKADYEKHKVYACEVTHQGLSSPVTKSFNRGEC | 108 % of control (=100)
11 | GpH7-B3 variant K334_14T/GpL16-k0 (antibody, human IgG1, kappa, Alteration in both H chains; also called Ho Ab K334_14T) heavy: not shown light: DIVMTQSPLSLPVTPGEPASISCQASESLVHSNRNTYLHWYLQKPGQSPQLLIYKVSNRFSGVPDRFSGSGSGTDFTLKISRVEAEDVGVYYCSQNTHVPPTFGQGTKVEIERTVAAPSVFIFPPSDEQLKSGTASVVCLLNNFYPREAKVQWKVDNALQSGNSQESVTEQDSKDSTYSLSSTLTLSKADYEKHKVYACEVTHQGLSSPVTKSFNRGEC | 106 % of control (=100)
12 | GpH7-B3 variant K334_08L/GpL16-k0 (antibody, human IgG1, kappa, Alteration in both H chains; also called Ho Ab K334_08L) heavy: not shown light: DIVMTQSPLSLPVTPGEPASISCQASESLVHSNRNTYLHWYLQKPGQSPQLLIYKVSNRFSGVPDRFSGSGSGTDFTLKISRVEAEDVGVYYCSQNTHVPPTFGQGTKVEIERTVAAPSVFIFPPSDEQLKSGTASVVCLLNNFYPREAKVQWKVDNALQSGNSQESVTEQDSKDSTYSLSSTLTLSKADYEKHKVYACEVTHQGLSSPVTKSFNRGEC | 108 % of control (=100)
13 | GpH7-B3 variant K334_19Q/GpL16-k0 (antibody, human IgG1, kappa, Alteration in both H chains; also called Ho Ab K334_19Q) heavy: not shown light: DIVMTQSPLSLPVTPGEPASISCQASESLVHSNRNTYLHWYLQKPGQSPQLLIYKVSNRFSGVPDRFSGSGSGTDFTLKISRVEAEDVGVYYCSQNTHVPPTFGQGTKVEIERTVAAPSVFIFPPSDEQLKSGTASVVCLLNNFYPREAKVQWKVDNALQSGNSQESVTEQDSKDSTYSLSSTLTLSKADYEKHKVYACEVTHQGLSSPVTKSFNRGEC | 106 % of control (=100)
14 | GpH7-B3 variant K326_09D/GpL16-k0 (antibody, human IgG1, kappa, Alteration in both H chains; also called Ho Ab K326_09D) heavy: not shown light: DIVMTQSPLSLPVTPGEPASISCQASESLVHSNRNTYLHWYLQKPGQSPQLLIYKVSNRFSGVPDRFSGSGSGTDFTLKISRVEAEDVGVYYCSQNTHVPPTFGQGTKVEIERTVAAPSVFIFPPSDEQLKSGTASVVCLLNNFYPREAKVQWKVDNALQSGNSQESVTEQDSKDSTYSLSSTLTLSKADYEKHKVYACEVTHQGLSSPVTKSFNRGEC | 106 % of control (=100)
15 | GpH7-B3 variant K334_04F/GpL16-k0 (antibody, human IgG1, kappa, Alteration in both H chains; also called Ho Ab K334_04F) heavy: not shown light: DIVMTQSPLSLPVTPGEPASISCQASESLVHSNRNTYLHWYLQKPGQSPQLLIYKVSNRFSGVPDRFSGSGSGTDFTLKISRVEAEDVGVYYCSQNTHVPPTFGQGTKVEIERTVAAPSVFIFPPSDEQLKSGTASVVCLLNNFYPREAKVQWKVDNALQSGNSQESVTEQDSKDSTYSLSSTLTLSKADYEKHKVYACEVTHQGLSSPVTKSFNRGEC | 106 % of control (=100)
16 | GpH7-B3 variant K334_05P/GpL16-k0 (antibody, human IgG1, kappa, Alteration in both H chains; also called Ho Ab K334_05P) heavy: not shown light: DIVMTQSPLSLPVTPGEPASISCQASESLVHSNRNTYLHWYLQKPGQSPQLLIYKVSNRFSGVPDRFSGSGSGTDFTLKISRVEAEDVGVYYCSQNTHVPPTFGQGTKVEIERTVAAPSVFIFPPSDEQLKSGTASVVCLLNNFYPREAKVQWKVDNALQSGNSQESVTEQDSKDSTYSLSSTLTLSKADYEKHKVYACEVTHQGLSSPVTKSFNRGEC | 106 % of control (=100)
17 | GpH7-B3 variant K334_15Y/GpL16-k0 (antibody, human IgG1, kappa, Alteration in both H chains; also called Ho Ab K334_15Y) heavy: not shown light: DIVMTQSPLSLPVTPGEPASISCQASESLVHSNRNTYLHWYLQKPGQSPQLLIYKVSNRFSGVPDRFSGSGSGTDFTLKISRVEAEDVGVYYCSQNTHVPPTFGQGTKVEIERTVAAPSVFIFPPSDEQLKSGTASVVCLLNNFYPREAKVQWKVDNALQSGNSQESVTEQDSKDSTYSLSSTLTLSKADYEKHKVYACEVTHQGLSSPVTKSFNRGEC | 107 % of control (=100)
18 | GpH7-B3 variant K326_10E/GpL16-k0 (antibody, human IgG1, kappa, Alteration in both H chains; also called Ho Ab K326_10E) heavy: not shown light: DIVMTQSPLSLPVTPGEPASISCQASESLVHSNRNTYLHWYLQKPGQSPQLLIYKVSNRFSGVPDRFSGSGSGTDFTLKISRVEAEDVGVYYCSQNTHVPPTFGQGTKVEIERTVAAPSVFIFPPSDEQLKSGTASVVCLLNNFYPREAKVQWKVDNALQSGNSQESVTEQDSKDSTYSLSSTLTLSKADYEKHKVYACEVTHQGLSSPVTKSFNRGEC | 105 % of control (=100)
19 | GpH7-B3 variant K334_13S/GpL16-k0 (antibody, human IgG1, kappa, Alteration in both H chains; also called Ho Ab K334_13S) heavy: not shown light: DIVMTQSPLSLPVTPGEPASISCQASESLVHSNRNTYLHWYLQKPGQSPQLLIYKVSNRFSGVPDRFSGSGSGTDFTLKISRVEAEDVGVYYCSQNTHVPPTFGQGTKVEIERTVAAPSVFIFPPSDEQLKSGTASVVCLLNNFYPREAKVQWKVDNALQSGNSQESVTEQDSKDSTYSLSSTLTLSKADYEKHKVYACEVTHQGLSSPVTKSFNRGEC | 106 % of control (=100)
20 | GpH7-B3 variant K326_19Q/GpL16-k0 (antibody, human IgG1, kappa, Alteration in both H chains; also called Ho Ab K326_19Q) heavy: not shown light: DIVMTQSPLSLPVTPGEPASISCQASESLVHSNRNTYLHWYLQKPGQSPQLLIYKVSNRFSGVPDRFSGSGSGTDFTLKISRVEAEDVGVYYCSQNTHVPPTFGQGTKVEIERTVAAPSVFIFPPSDEQLKSGTASVVCLLNNFYPREAKVQWKVDNALQSGNSQESVTEQDSKDSTYSLSSTLTLSKADYEKHKVYACEVTHQGLSSPVTKSFNRGEC | 105 % of control (=100)
21 | GpH7-B3 variant P271_08L/GpL16-k0 (antibody, human IgG1, kappa, Alteration in both H chains; also called Ho Ab P271_08L) heavy: not shown light: DIVMTQSPLSLPVTPGEPASISCQASESLVHSNRNTYLHWYLQKPGQSPQLLIYKVSNRFSGVPDRFSGSGSGTDFTLKISRVEAEDVGVYYCSQNTHVPPTFGQGTKVEIERTVAAPSVFIFPPSDEQLKSGTASVVCLLNNFYPREAKVQWKVDNALQSGNSQESVTEQDSKDSTYSLSSTLTLSKADYEKHKVYACEVTHQGLSSPVTKSFNRGEC | 103 % of control (=100)
22 | GpH7-B3 variant K334_16H/GpL16-k0 (antibody, human IgG1, kappa, Alteration in both H chains; also called Ho Ab K334_16H) heavy: not shown light: DIVMTQSPLSLPVTPGEPASISCQASESLVHSNRNTYLHWYLQKPGQSPQLLIYKVSNRFSGVPDRFSGSGSGTDFTLKISRVEAEDVGVYYCSQNTHVPPTFGQGTKVEIERTVAAPSVFIFPPSDEQLKSGTASVVCLLNNFYPREAKVQWKVDNALQSGNSQESVTEQDSKDSTYSLSSTLTLSKADYEKHKVYACEVTHQGLSSPVTKSFNRGEC | 106 % of control (=100)
